In data set [1] the target is T1, L-Abl SH2 domain (recombinant) (human).
T1 chain: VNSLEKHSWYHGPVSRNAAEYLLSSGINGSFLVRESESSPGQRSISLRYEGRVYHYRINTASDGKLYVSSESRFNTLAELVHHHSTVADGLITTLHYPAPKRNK
Nature of the data set: ITC.

The target in data set [2] is T1, L-Abl SH2 domain (recombinant). The data set can be described thus: ITC; monobody in the syringe titrated to the SH2 domain, 20 mM HEPES pH 7.4, 150 mM NaCl, 0.5 mM TCEP-HCl, 25 °C, 1:1 binding model.
Data set [3] deals with T2, biotinylated synthetic D-Abl SH2 domain (human, UniProt P00519-2 141-240, all residues in D-configuration; biotin (position not given)).
T2 chain: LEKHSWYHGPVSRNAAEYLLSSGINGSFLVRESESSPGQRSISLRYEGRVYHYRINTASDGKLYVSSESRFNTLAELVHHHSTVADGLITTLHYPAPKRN
The data set can be described thus: FACS; yeast surface display. In general terms: A flow cytometer gives signals particle by particle.

Data set [4] has as its target T3, D-Abl SH2 domain (synthetic mirror-image SH2 domain of human BCR::ABL1) (human, UniProt P00519-2 141-240, all residues in D-configuration).
T3 chain: T2 chain
Nature of the data set: ITC. (In general: In ITC the heat of successive injections is recorded.)

The target of data set [5] is T3, D-Abl SH2 domain (synthetic …). The data set can be described thus: ITC.
Data set [6] concerns the molecule itself. Nature of the data set: crystal structure; L-DAM21 with D-Abl SH2 A198C; 0.16 M ammonium sulfate, 0.08 M sodium acetate pH 4.6, 20% PEG 4000, 20% glycerol; 100 K.
Data set [7] deals with T4, D-Abl SH2 domain (synthetic mirror-image SH2 domain of human BCR::ABL1) (human, UniProt P00519-2 141-240, all residues in D-configuration).
T4 construct: Mirror-image protein; also called D-Bcr-Abl SH2; D-SH2
T4 sequence: T2 chain
The data set can be described thus: fluorescence polarisation; direct binding of the fluorescent D-pY peptide to D-Abl SH2 (Fig. S1); conditions not shown. Conditions: both partners purified. On the technique in general: Polarisation of emitted light reports the rotation of a fluorescent probe.

Data set [8] addresses T3, D-Abl SH2 domain (synthetic …). The data set can be described thus: ITC.
Data set [9] has as its target D-Abl SH2 domain (synthetic mirror-image SH2 domain of human BCR::ABL1) (human) (UniProt P00519). The data set can be described thus: ITC; monobody in the syringe titrated to the SH2 domain, 20 mM HEPES pH 7.4, 150 mM NaCl, 0.5 mM TCEP-HCl, 25 °C, 1:1 binding model.

Substitutions are numbered along the chain they refer to. Names and notes keep the numbering of the source. Non-standard residues stand in square brackets, D forms with d. *: point of attachment. 5FAM = O=C1OC2(c3ccc(O)cc3Oc3cc(O)ccc32)c2ccc(C(=O)*)cc21

B1: synthetic D-DAM27-XTEN (mirror-image monobody) (designed binder)
chain: AASSVPTKLEVVAATPTSLLISWDAPAVTVDHYVITYGETGGGGGSQEFEVPGSKSTATISGLKPGVDYTITVYAYEFYSGEYSHFSPISINYRT
modifications: all residues in D-configuration; biotin at the N-terminus
By Kd is commonly meant the equilibrium constant for the complex coming apart. One may read the stoichiometry N as the number of molecules, sites or subunits per partner or assembly. For the molecule B1, the Kd in data set [1] amounted to 125 nM. Besides, the stoichiometry N in data set [2] was 1.

B2: monobody DAM27 displayed on yeast (designed binder)
chain: ASSVPTKLEVVAATPTSLLISWDAPAVTVDHYVITYGETGGGGGSQEFEVPGSKSTATISGLKPGVDYTITVYAYEFYSGEYSHFSPISINYRT
Molecule B2 registered a Kd in data set [3] of 24 nM.

B3: L-monobody DAM27 (recombinant) (designed binder)
chain: B2 chain
In the case of B3, in data set [4], binding was characterised by a dissociation constant (Kd) of 72.3 nM.

B4: L-monobody DAM21 (recombinant) (designed binder)
chain: ASSVPTKLEVVAATPTSLLISWDAPAVTVDHYVITYGETGGNSPVQEFTVPGSKSTATISGLKPGVDYTITVYASDYYDGEISWYSPISINYRT
The molecule B4 showed a Kd in [4] of 11.9 nM.

B5: monobody DAM21 displayed on yeast (designed binder)
chain: B4 chain
In data set [3], B5 had an equilibrium dissociation constant (Kd) of 20 nM.

B6: L-monobody DAM30.1 (recombinant) (designed binder)
chain: MAASSVPTKLEVVAATPTSLLISWDAPAVTVDHYVITYGETGGGWYGQEFEVPGSKSTATISGLKPGVDYTITVYAYEFYSGEYSHFSPISINYRT
In turn, B6 had a Kd in data set [5] of 90.3 nM.

B7: D-Abl SH2 A198C (synthetic D-Abl SH2 domain not desulfurized, cysteine at position 198) (domain or fragment, human)
chain: T2 chain with A58C
modifications: all residues in D-configuration
notes: SH2 domain of human ABL1 (BCR::ABL1); Found as a disulfide-bridged (Cys198) dimer in both crystal structures; also called D-SH2
As to B7, in data set [6], the binding result was “binds”.

B8: D-pY peptide 5-carboxyfluoresceine-EPQpYEEIPIYLK-CONH2 in D-configuration (peptide)
peptide: 5FAM-[dE][dP][dQ][dpY][dE][dE][dI][dP][dI][dY][dL][dK]-NH2
notes: also called D-pYEEI peptide; D-phospho tyrosine (pY) peptide; source: synthetic peptide, bought: Peptide Synthetics (UK)
In turn, B8 registered an equilibrium dissociation constant (Kd) in data set [7] of roughly 5000 nM.

B9: L-monobody DAM30.2 (recombinant) (designed binder)
chain: MAASSVPTKLEVVAATPTSLLISWDAPAVTVDHYVITYGETGAYVSGPQEFTVPGSKSTATISGLKPGVDYTITVYAYEFYSGEYSHFSPISINYRT
For B9, the dissociation constant Kd in [5] amounted to 189 nM.

B10: synthetic L-DAM27-XTEN (designed binder)
chain: ASSVPTKLEVVAATPTSLLISWDAPAVTVDHYVITYGETGGGGGSQEFEVPGSKSTATISGLKPGVDYTITVYAYEFYSGEYSHFSPISINYRTAEGPSTAEGPSTAEGPST
modifications: biotin at the N-terminus
In data set [8], B10 registered a Kd of 128 nM. The stoichiometry N in [9] is 1.

B11: recombinant L-DAM27-XTEN (designed binder)
chain: B10 chain
The molecule B11 had a Kd in data set [8] of 97.6 nM. The molecule further had a stoichiometry N in data set [9] of 1.

B12: L-monobody DAM28 (recombinant) (designed binder)
chain: MAASSVPTKLEVVAATPTSLLISWDAPAVTVDHYVITYGETGGNSPVQEFTVPGSKSTATISGLKPGVDYTITVYAYEYWEYEYSSYSPISINYRT
As to B12, the equilibrium dissociation constant (Kd) in [5] worked out at 58.9 nM.

B13: monobody DAM26 displayed on yeast (designed binder)
chain: B6 chain with G44N, W45S, Y46P, G47V, E51T
The molecule B13 had a dissociation constant (Kd) in data set [3] of 32 nM.

B14: L-monobody DAM26 (recombinant) (designed binder)
chain: B6 chain with G44N, W45S, Y46P, G47V, E51T
B14 gave an equilibrium dissociation constant (Kd) in data set [5] of 249 nM.

B15: monobody DAM28 displayed on yeast (designed binder)
chain: B12 chain
Consider B15, for which the equilibrium dissociation constant (Kd) in [3] is 68 nM.

For the origin of these results see publication PMC11666773, “Development of mirror-image monobodies targeting the oncogenic BCR::ABL1 kinase” (Nature Communications, 2024).
